Measurements: US20240181075A1 (EMERGENCE THERAPEUTICS, published 2024)

T1: Nectin-1 extracellular domain Fc fusion recombinant protein (Nec1-VCC) (UniProt Q15223 31-355, limits assumed)
T1 construct: extracellular domain; also called Nectin-1-VCC-Fc; not shown: Fc part
T1 sequence (looked up): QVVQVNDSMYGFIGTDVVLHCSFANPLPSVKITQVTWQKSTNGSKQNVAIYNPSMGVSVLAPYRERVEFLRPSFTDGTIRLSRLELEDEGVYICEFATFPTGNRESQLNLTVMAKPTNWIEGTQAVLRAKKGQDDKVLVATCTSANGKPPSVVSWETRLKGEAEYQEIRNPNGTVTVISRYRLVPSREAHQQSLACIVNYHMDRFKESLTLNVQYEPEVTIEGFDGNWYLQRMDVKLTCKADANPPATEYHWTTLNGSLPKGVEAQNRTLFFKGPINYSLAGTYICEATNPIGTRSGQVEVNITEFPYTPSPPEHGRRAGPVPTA

T2: Nectin-4 IgV-like domain Fc fusion recombinant protein (Nec4-V) (human, UniProt Q96NY8 32-146, limits assumed)
T2 construct: domain: IgV-like domain; also called Nectin-4-V-Fc; not shown: Fc part
T2 sequence (looked up): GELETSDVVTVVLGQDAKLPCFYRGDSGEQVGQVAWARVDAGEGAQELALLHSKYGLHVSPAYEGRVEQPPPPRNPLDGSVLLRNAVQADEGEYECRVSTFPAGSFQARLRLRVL

T3: Nectin-4 extracellular domain Fc fusion recombinant protein (Nec4-VCC) (human, UniProt Q96NY8 32-349)
T3 construct: extracellular domain; also called Nectin-4-VCC-Fc; not shown: Fc part
T3 sequence (looked up): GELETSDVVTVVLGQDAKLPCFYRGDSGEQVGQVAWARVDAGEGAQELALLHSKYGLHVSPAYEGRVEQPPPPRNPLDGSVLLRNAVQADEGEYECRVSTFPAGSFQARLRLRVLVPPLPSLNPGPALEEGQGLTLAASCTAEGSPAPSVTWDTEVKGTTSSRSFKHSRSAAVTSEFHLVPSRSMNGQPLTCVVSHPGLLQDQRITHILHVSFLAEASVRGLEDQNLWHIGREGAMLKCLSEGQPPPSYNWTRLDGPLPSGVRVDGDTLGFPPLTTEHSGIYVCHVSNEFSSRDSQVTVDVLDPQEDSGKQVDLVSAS

T4: human Nectin-4 on cells (CHO cells transfected with human Nectin-4 cDNA); SUM190 tumor cells; normal … (human, UniProt Q96NY8 32-510)
T4 construct: whole, on cells; The cell type that carried it is named under assay in each row; also called PVRL4; PRR4
T4 sequence (looked up): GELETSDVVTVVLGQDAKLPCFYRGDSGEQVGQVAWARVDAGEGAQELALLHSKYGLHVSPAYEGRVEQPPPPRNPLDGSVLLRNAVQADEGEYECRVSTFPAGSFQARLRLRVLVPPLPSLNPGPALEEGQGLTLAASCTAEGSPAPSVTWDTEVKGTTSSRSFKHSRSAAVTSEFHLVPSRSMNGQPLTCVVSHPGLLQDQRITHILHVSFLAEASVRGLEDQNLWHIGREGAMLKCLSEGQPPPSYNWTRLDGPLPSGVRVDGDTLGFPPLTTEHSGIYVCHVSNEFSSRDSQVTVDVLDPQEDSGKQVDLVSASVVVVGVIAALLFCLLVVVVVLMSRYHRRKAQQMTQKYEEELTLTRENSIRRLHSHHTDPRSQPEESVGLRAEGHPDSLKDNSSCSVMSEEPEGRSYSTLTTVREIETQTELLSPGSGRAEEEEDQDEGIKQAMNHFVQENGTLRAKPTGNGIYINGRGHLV

T5: human Nectin-4 with N-terminal Flag epitope tag, expressed on transfected MDA-MB231 cells (human, UniProt Q96NY8 32-510)
T5 construct: whole, on cells; also called PVRL4 cDNA in p3XFLR4.C1
T5 sequence (looked up): T4 sequence (looked up)

B1: Ch-15A7.5 (chimeric anti-Nectin-4 monoclonal antibody 15A7.5) (antibody, V domains shown)
VH: EVKLVESGGGLVQPGGSRKLSCAASGFTFSNYGMAWVRQAPGKGPEWVAFISNLAYGINYADTVTGRFTISRENAKNTLYLEMRSLRSEDTAMYYCARGARATGWFAYWGQGTLVTVSA
VL: DIVMTQSQKFMSTSIGDRVSVTCKASQNVDTHVAWYQEKPGQSPKALIYSASYRYSGVPDRFTGSGSGTDFTLTISNVQSEDLADYFCQQYNSYPLTFGGGTKLEIK
notes: also called Ch-15A7.5 mAb; Ch-15A7 mAb
B2: Ch-5A12.2 (chimeric anti-Nectin-4 monoclonal antibody 5A12.2) (antibody, V domains shown)
VH: QIQLQQSGAELVKPGASVTLSCKTSGFTFNSMYISWLKQKPGQSLEWIAWIYAGTGGTRFNQKFTGKVQLTVDTSSSTAYMQFSSLTTDDSAIYYCAIRSGFVPMDYWGQGTSVTVSS
VL: SIVMTQTPKFLLVSAGDRVTITCKASQSVSNDVAWYQQKPGQSPKLLIYYASNRYTGVPDRFTGSGYGTDFTFTISTVQAEDLAVYFCQQDYSSPWTFGGGTKLEIK
notes: also called Ch-5A12.2 mAb; 5A12.2 mAb
B3: HA22 (Enfortumab), human monoclonal anti-Nectin-4 antibody (antibody, V domains shown)
VH: EVQLVESGGGLVQPGGSLRLSCAASGFTFSSYNMNWVRQAPGKGLEWVSYISSSSSTIYYADSVKGRFTISRDNAKNSLSLQMNSLRDEDTAVYYCARAYYYGMDVWGQGTTVTVSS
VL: DIQMTQSPSSVSASVGDRVTITCRASQGISGWLAWYQQKPGKAPKFLIYAASTLQSGVPSRFSGSGSGTDFTLTISSLQPEDFATYYCQQANSFPPTFGGGTKVEIK
notes: also called Enfortumab (HA22); HA22 mAb

Tests used:
[1] = biological target: T1, Nectin-1 extracellular domain Fc fusion …; test: ELISA, plate coated with Nec1-VCC Fc fusion protein
Experimental: (§1) Detection by ELISA. [0433]
(§2) One hundred μL of peroxidase substrate was added (One Step ABST, Pierce), and OD was red at 405 nm.

[2] = biological target: T2, Nectin-4 IgV-like domain Fc fusion …; test: ELISA, plate coated with Nec4-V Fc fusion, peroxidase-conjugated antibody
Experimental: as §1, §2

[3] = biological target: T3, Nectin-4 extracellular domain Fc fusion …; test: ELISA, plate coated with Nec4-VCC Fc fusion, peroxidase-conjugated antibody
Experimental: as §1, §2

[4] = biological target: T4, human Nectin-4 on cells (CHO cells …); test: flow cytometry on normal differentiated human keratinocytes (NHEK), compared with SUM190 tumor cells
[5] = biological target: T5, human Nectin-4 with N-terminal Flag …; test: flow cytometry on MDA-MB231 cells transfected with N-terminal Flag-tagged Nectin-4, anti-human Fc PE detection
Excerpt: Detection by flow cytometry. [0431] […] Cells were then stained with phycoerythrin conjugate goat anti human Fc antibody. The normalized mean fluorescence intensity is shown. […] Mean fluorescence intensity is represented.

[6] = biological target: T4, human Nectin-4 on cells (CHO cells …); test: flow cytometry on normal differentiated human keratinocytes (NHEK); reference antibody of the comparison
[7] = biological target: T3, Nectin-4 extracellular domain Fc fusion …; test: statement in the legend of the competition ELISA on coated Nec4-VCC
Experimental: Competition assay was performed by ELISA. [0435] Ninety-six-wells plates were coated with 5 μg/mL of Nectin-4 extracellular domain Fc fusion recombinant protein (Nec4-VCC) overnight at 4° C.
as §2

binding result [1]	binding result [2]	binding result [3]	binding result [4]	binding result [5]	binding result [6]	binding result [7]	Binder
no binding	binds	binds	binds	binds	–	–	B1
–	–	–	–	binds	binds	–	B2
–	–	–	–	–	–	binds	B3
